Measured values as given in patent publication US20230390371A1, “ANTI-TUMOR IMMUNITY INDUCES THE PRESENTATION OF ABERRANT PEPTIDES” (STICHTING HET NEDERLANDS KANKER INSTITUUT-ANTONI VAN …, priority 2020, published 2023).

Test system: MD55A3 melanoma cells
Assay: V5-ATF4(1-63)-His frameshift reporter, His-tag pulldown and V5-tag immunoblotting
Assay type: cell-based, human
Settings: IFNγ treatment vs control, MD55A3 cells
Text: FIG. 3: W-Bumps are associated with disordered out-of-frame peptides, and shortage in tryptophan leads to frameshifting events. • (a) Bar-plots depicting total occurrences of alpha-helices, beta-sheets and turns for tryptophan-containing peptide sequences corresponding to W-Bumps (left) and all remaining peptide sequences (middle), and the difference in percentages (right). […] Tryptophan shortage, on the other hand, can lead to stalling on the tryptophan codon (bottom left panel), or could in theory induce frameshifting events, leading to aberrant peptide production (lower right panel). Since secondary structure of growing polypeptide chains is attained in the lower tunnel of the ribosome, the loss of an a-helical secondary structure in this tunnel could hamper ribosomal progression. (c) Line-plots depicting the probability of disorderedness of peptide sequences. The position of the tryptophan is indicated by the dashed line. […] The green line represents the average probability of disorderedness of all peptides (‘All tryptophan codons’, n=36508). A group of outlier candidates that show relatively ordered out-of-frame peptide sequences were selected for comparisons (‘Selected tryptophan codons’, n=94, red). (d) Line-plots depicting mean frequency of RPFs at single nucleotide resolution across all tryptophans (green) and the selected outlier set (red) from panel 3c. […]

B1: IFNγ: interferon gamma (PeproTech), used at 250 U/mL (protein, UniProt P01579 24-161, looked up)
Interferon gamma: QDPYVKEAENLKKYFNAGHSDVADNGTLFLGILKNWKEESDRKIMQSQIVSFYFKLFKNFKDDQSIQKSVETIKEDMNVKFFNSNKKKRDDFEKLTNYSVTDLNVQRKAIHELIQVMAELSPAAKTGKRKRSQMLFRG
His-tag pulldown of +1 and +2 reporter proteins (frameshifting events): partially pulled down
